Measured values reported in the DeepSol protein solubility set.

test: soluble on expression in E. coli; label from the status in PepcDB or PDB records

Sequence	soluble on expression in E. coli
MGSDKIHHHHHHMNNNQTRVLITAIGTMNCTTIISELKKAEEVFYVIGADINGKYSIANSNEVDEFFQFPSVLHDREGYVQYLLNFCKEHNVEVFFCVVDEEVEVVAKHKEDFNAIGITLCLANIDAIITCHNKNLFAEWSEKNIAKYCIKRYENITDVNNDNFPIFIKPVEGRASIGCRKIENMEELWKYASVWDNYIAQEYVTGEIVSVDIVRNRKTEQFEVVQKLELLRNSNGCGIAVEIVDIPEIRQLCCIIADIFNLNGVINAEFFITNKGLKIIEINPRLPAGIEYSCMAGLDVVLNALRIARGEACIFKDIKIGAHYAKRYETYEIK	not soluble
MNMLEKIQSQLEHLSKSERKVAEVILASPDNAIHSSIAALALEANVSEPTVNRFCRSMDTRGFPDFKLHLAQSLANGTPYVNRNVNEDDSVESYTGKIFESAMATLDHVRHSLDKSAINRAVDLLTQAKKIAFFGLGSSAAVAHDAMNKFFRFNVPVVYSDDIVLQRMSCMNCSDGDVVVLISHTGRTKNLVELAQLARENDAMVIALTSAGTPLAREATLAITLDVPEDTDIYMPMVSRLAQLTVIDVLATGFTLRRGAKFRDNLKRVKEALKESRFDKQLLNLSDDR	soluble
MASAAKGKILAVIGDEDTVVGFLLGGVGELNKARKPNYLIVDKQTTVQEIEEAFNGFCARDDIAIILINQHIAEMIRYAVDNHTQSIPAVLEIPSKEAPYDPSKDSILNRARGLFNPEDFR	soluble
MLLAMELLLEYDYYWKLDNIIANVQRNFPSNSLTVLFPKTHLLISPENMGRVAAKLIRLTEKNQQRNGIVTFKLYYQHEEGEEEEEEEVDEDEDEEGEEGEEEEEEEDEVEEVPQKISEIFNLGAHLVGEPPENCWYLEDILTIPKEIIKDAFGDVTVWYGKSFQLRNSIANRRIHFNLFYTKNYLKKFFMERDGCMMETEFLRHFKDIAN	not soluble
MPVVSNTELSMRRQEILEGARRCFAEHGYEGATVRRLEETVGKSRGAIFHHFSDKENLFLALAREDAARMAEVVAENGLVEVMRDMLAHPERHDWLATRLEITKMLRTDPSFRNRWIEHQRVLDDAVLERLQRNAHLGRMRDDVPIDVLHTYLETVLDGFISRLASGGDTDNLERVLDLVEESVRSSQPS	not soluble
MSLFMNPHRRFWMVTGWTKSAIWVARWLLGIRWQCQGWEHIEEAVATNKQVVLLSKHQSAWETIAFVAIMPRPLCYVFKRELLYVPFFGWALGMLKMVHINRKDGTNAFASVARQGKERMADGSWIIMFPEGTRTPVGAPNPRYKSGGARLAVDTGAWVIPIAHNSGRLWPRNAFLKYPGLITLSIGPAISSAGKSGDQLNREVQAWIEAEMRRIDADSYEGHHHHHH	not soluble
GPGSMSSSGPLAPPISWAQRPEYVLITIPLQDTTGVSVEIKDEGRELHFACSSPEHKQYACTIHFYGVISSEESQHVVRPRQIELKLRKKFSKSLEDANDDEVEWPRLTKEKSKYPNITIDWSKWKDENDDECAADDLGNFGLSGGDAMDGQYSEMLSQLMQAQGQKDAEESADLPPGTIPGFGSARGQEATHGASAETGDDDGDMPPLEEDT	soluble
SLGNGMNKILPGLYIGNFKDARDAEQLSKNKVTHILSVHDSARPMLEGVKYLCIPAADSPSQNLTRHFKESIKFIHECRLRGESCLVHCLAGVSRSVTLVIAYIMTVTDFGWEDALHTVRAGRSCANPNVGFQRQLQEFEKHEVHQ	not soluble
MSLLPTILTVDDEEMIRDLMVTALSREGYRCFQAGSAEEARSVLQNNKIDLAILDIMMPGLSGDDFLKELKVLSPETVVLMVTALSDTETAMKCIHLGAYDYILKPFDIDRVLLTIHNALEKQRLLAENREYQANLEKKVDEQTRQIRMAMEDLNLAYNHTLTALVRALDAREKETGSHSERVMTYTLLLGEAMGVPEKDLSVMARGALLHDIGKVGISDNILLKPAKLDEREWMEMMRHPQLGYEILSGIKFLKGPAEIVFAHHERFDGSGYPKGLSRSGIPLGARIFSLVDTLDAMTSDRPYRKALPFEAVTSEVRRCRGTQFDPEIVDIFLSIPRERWEVVGKRHFIVGEGHHHHHH	not soluble
MKTFKLVGLSVIDDDMHRQDIPFIDGLIINKEDGQNRWLVEAYLDDDYEPMFVSLQRRPEFQLQVTITHTSNDPANMLVTVRSITKMNGHISVLMEGLMIPRRTHLAEVVLAGLVKKGLQGEALLQEFRQQMHERIDAKAPQERKR	not soluble
MLCAQTFSEEDFRIRGYVDIHRLDTTIRLALIYSTTDNFVGEDMYGDFDKAYFEKGFAERIHQAQRLLRKEHPDYSLLIYDASRPISIQRRMYTLVKGTSKAVYVANGNRGGKHNYGVAVDLTIVDRDGKPLDMGTPVDHFGRAAHVGQEERLAADGLISREAVRNRRLLRRIMKSVGLVPYRREWWHYELPESMSHTRSHYRLLDF	not soluble
MGSDKIHHHHHHMSKPSRWPLTADGIRFITPHVLVKRLQNHALAKGLFVTAMGYYPTASGHAMERKGHPDHILIYCTAGSGFLTMAGKTTEINSGDIFYLPAGSQHSYQASKELPWTLYWLHFDGTLANDFCQHINIVERKFTIGVQPRVIRVFDGISHLRHSSHNLAEFIQGGHQVQALLSYIALLVQQRKPSAINTFDTENLRAMMQEHIHSKLDLDSLAEAAKLSKYHFSKKFKQVTGESPISYFINMKMQRACYLLDSTPRSVKHVASELGYHDTYYFSRLFKKNIGMAPAIYRKAKL	not soluble
MGSDKIHHHHHHMARYYMPAEGDSYLKKVWTWATTGKRFRPSFPRTIEFQTLSTCNAKCIFCPHKHSPKDIPHGRMDDALFRKIVDECARHFVGRVSPYLTNEPLMDKRMPEMLRYIHDKMPFFTKSKINTNAALLTEETGEALIRAGLTHLWISVNGYSPETYRTSMDLDLDRTLTNIDTFLATKRRLGAKNPKVIVTTVETNIVKPELDYARKYWKERDIVFKVHAMDNRAGADSLTFKASKPKLKRNCDLFLKQAYIVENGDMIICCHDWKQTVKVGNVAETSIKEVWNSRYFTDLIRDYVRGDYSRLGICAKCSS	not soluble
MGHHHHHHSHMEKCSVGGLELTEQTPALLGNMAMATSLMDIGDSFGHPACPLVSRSRNSPVEDDDDDDDVVFIESIQPPSISAPAIADQRNFIFASSKNEKPQGNYSVIPPSSRDLASQKGNISETIVIDDEEDIETNGGAEKKSSCFIEWGLPGTKNKTNDLDFSTSSLSRSKVNAGMGNSGITTELTLKYIITNVTTLETGISSVNAGQDVNIIITYKTSL	not soluble
MDVQDLKPPKPLYLERVGFRGVRRRALLETPEGPVTLDLELDVFVDLDRSKRGVHLSRNIEAVEAVVSERRARSIEGLLRSIAKELLSRHGYAEKATVRARTRYYIDLEAAGVKGREPVDVAVTVSLTRSGGERWRVAVSVKGMTVCPSAQSTIAEAEGISDPSRAPSHSQKVLLKGTVDTGKVMVRIEDLARALLQSFSAPTFTLLKKPQEARLILEAFTRPMFVEDVVREAAWRIAAIPYIPGEALLQVEAVSLESIHPHDLVAMLRSRVSEVRSLASRSV	not soluble
MAIQHPDIQPAVNHSVQVAIAGAGPVGLMMANYLGQMGIDVLVVEKLDKLIDYPRAIGIDDEALRTMQSVGLVDNVLPHTTPWHAMRFLTPKGRCFADIQPMTDEFGWPRRNAFIQPQVDAVMLEGVSRFPNVRCLFSRELEAFSQQDDEVTLHLKTAEGLREIVKAQWLVACDGGASFVRRTLNVPFEGKTAPNQWIVVDIANDPLSTPHIYLCCDPVRPYVSAALPHAVRRFEFMVMPGETEEQLREPQNMRKLLSKVLPNPDNVELIRQRVYTHNARLAQRFRIDRVLLAGDAAHIMPVWQGQGYNSGMRDAFNLAWKLALVIQGKARDALLDTYQQERRDHAKAMIDLSVTAGNVLAPPKRWQGTLRDGVSWLLNYLPPVKRYFLEMRFKPMPQYYGGALVREGEAKHSPVGKMFIQPKVTLENGDVTLLDNAIGANFAVIGWGCNPLWGMSDEQIQQWRALSTRFIQVVPEVQIHTAQDNHDGVLRVGDTQGRLRSWFAQHNASLVVMRPDRFVAATAIPQTLGKTLNKLASVMTLTRPDADVSVEKVA	not soluble
MVLLIIRGDSYEKIKNAIADVHRHAKLTILGKPRIMVPEAADEILEHIVGNIKKPCKKACLVRIEENAPRAIDRIRKIHPPAHIVIVSERHEPYFYLLEDLPKMPLLKGYYKSKSLDSDEEIEESH	not soluble
MALARANSPQEALLWALNDLEENSFKTLKFHLRDVTQFHLARGELESLSQVDLASKLISMYGAQEAVRVVSRSLLAMNLMELVDYLNQVCLNDYREIYREHV	soluble
